Assay [1] has as its target T1, 人TIM-3重组蛋白 (T cell immunoglobulin domain and mucin domain-3) (human, UniProt Q8TDQ0 22-202, limits assumed).
T1 construct: Recombinant protein coated on 96-well plates; The construct is not described; also called TIM-3蛋白
The experiment in a line: ELISA, coated TIM-3 recombinant protein, serially diluted nanobody, anti-his detection, GraphPad least-squares fit.

Assay [2] deals with T1, 人TIM-3重组蛋白 (T cell immunoglobulin …). The assay can be described thus: same number as the ELISA EC50 of paragraph 67, here called KD. A general note: In an ELISA, binding on a coated surface is turned into a signal by an enzyme label.

The values that follow come from patent CN113150152A (UNIV XI AN JIAOTONG, dated 2021).

In general, EC50 refers to the concentration needed to bring the measured effect to its halfway point. The Kd is a measure of binding affinity in units of concentration.

B1: NbR2G3 (抗人源T细胞表面抑制性分子TIM-3的特异性纳米抗体) (VHH)
VHH: QVQLVESGGGLVQAGGSLRLSCAASGRTISNYNMGWFRQAPGKEREFAAITRSGGSTYYADSAKGRFTISRDNAKNTVYLQMNSLKPDDTAVYYCDAIPEGLVGRNLGYWGQGTQVTVSS
Regarding B1, the EC50 in assay [1] amounted to 76 nM. Moreover, the Kd in assay [2] is 76 nM.
